# Molecular target: ACE2-Fc (UniProt Q9BYF1)
# Assay: SPR
# Chain of ACE2-Fc (Q9BYF1 18-740): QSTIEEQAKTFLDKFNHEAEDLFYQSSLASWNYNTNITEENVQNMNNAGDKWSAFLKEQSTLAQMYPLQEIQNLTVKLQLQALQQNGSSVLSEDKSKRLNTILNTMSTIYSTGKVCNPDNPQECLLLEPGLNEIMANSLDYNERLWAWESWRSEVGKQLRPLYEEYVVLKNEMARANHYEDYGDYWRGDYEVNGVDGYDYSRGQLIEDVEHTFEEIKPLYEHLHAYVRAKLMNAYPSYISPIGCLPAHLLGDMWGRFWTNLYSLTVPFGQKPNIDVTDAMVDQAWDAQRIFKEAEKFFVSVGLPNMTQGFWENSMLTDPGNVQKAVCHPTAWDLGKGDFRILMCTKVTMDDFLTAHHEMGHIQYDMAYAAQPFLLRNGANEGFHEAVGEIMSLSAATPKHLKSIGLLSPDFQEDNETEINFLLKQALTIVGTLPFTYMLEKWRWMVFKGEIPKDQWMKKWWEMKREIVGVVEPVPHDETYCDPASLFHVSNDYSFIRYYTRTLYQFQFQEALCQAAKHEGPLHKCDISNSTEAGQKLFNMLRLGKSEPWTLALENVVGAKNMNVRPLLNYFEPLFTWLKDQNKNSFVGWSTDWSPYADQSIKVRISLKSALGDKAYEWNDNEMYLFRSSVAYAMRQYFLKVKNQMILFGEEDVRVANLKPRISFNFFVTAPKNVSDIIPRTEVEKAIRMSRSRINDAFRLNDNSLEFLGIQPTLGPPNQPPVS
substance,measurement,value
Wuhan RBD,Kd,7.3 nM
same,koff,0.0051 s⁻¹

# — publication doi:10.1101/2022.05.21.492554
